Common to all, as to assay: SPR, antibody captured, C2 as analyte;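 also: biacore SPR at 37 °C, anti-C2 mAbs captured via goat anti-human IgG on CM5 chips, double-referenced sensorgrams fit to a 1:1 kinetic or steady-state model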
(SPR reads the build-up and loss of mass on a sensor chip optically.)

In one test the target is T1, human C2 N325A (human, UniProt P06681 21-752).
T1 sequence: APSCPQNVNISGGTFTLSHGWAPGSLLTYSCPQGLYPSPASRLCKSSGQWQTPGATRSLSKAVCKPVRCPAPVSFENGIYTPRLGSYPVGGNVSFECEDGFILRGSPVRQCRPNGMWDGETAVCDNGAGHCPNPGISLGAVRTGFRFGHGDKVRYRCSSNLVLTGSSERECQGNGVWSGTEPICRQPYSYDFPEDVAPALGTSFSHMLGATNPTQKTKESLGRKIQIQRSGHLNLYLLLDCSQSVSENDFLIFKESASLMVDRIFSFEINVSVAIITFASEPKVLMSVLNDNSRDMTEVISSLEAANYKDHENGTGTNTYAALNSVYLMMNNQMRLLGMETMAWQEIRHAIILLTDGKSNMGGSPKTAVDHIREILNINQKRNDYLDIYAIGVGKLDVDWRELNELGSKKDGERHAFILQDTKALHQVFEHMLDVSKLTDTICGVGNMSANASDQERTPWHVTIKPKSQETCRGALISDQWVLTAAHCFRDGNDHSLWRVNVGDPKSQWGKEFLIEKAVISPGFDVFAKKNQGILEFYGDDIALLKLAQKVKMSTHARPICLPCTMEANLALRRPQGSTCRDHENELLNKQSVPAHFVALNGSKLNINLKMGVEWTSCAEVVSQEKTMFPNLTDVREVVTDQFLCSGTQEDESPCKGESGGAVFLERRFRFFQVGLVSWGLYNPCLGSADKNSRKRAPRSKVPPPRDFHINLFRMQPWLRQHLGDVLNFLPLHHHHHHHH

The next test concerns the target T2, human C2 E532A (human, UniProt P06681 21-752).
T2 sequence: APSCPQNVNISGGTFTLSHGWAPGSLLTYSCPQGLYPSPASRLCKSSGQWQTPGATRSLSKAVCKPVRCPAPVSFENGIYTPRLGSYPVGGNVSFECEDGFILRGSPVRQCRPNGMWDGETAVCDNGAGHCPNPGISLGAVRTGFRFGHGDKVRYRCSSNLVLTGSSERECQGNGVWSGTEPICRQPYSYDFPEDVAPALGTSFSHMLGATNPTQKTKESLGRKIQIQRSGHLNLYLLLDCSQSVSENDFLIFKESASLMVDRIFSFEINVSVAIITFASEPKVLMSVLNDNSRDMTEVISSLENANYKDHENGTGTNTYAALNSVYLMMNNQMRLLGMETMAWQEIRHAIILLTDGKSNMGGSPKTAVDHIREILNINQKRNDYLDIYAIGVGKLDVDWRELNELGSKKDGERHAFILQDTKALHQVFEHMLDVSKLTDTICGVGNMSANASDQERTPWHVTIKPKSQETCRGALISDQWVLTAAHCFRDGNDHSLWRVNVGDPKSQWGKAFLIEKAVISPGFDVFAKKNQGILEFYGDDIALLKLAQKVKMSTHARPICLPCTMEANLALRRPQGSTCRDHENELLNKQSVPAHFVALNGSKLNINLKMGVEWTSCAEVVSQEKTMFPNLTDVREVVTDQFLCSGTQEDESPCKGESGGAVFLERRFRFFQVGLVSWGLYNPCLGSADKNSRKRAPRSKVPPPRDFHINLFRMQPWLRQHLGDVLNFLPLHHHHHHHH

For another test, the target named is T3, human C2 N327A (human, UniProt P06681 21-752).
T3 sequence: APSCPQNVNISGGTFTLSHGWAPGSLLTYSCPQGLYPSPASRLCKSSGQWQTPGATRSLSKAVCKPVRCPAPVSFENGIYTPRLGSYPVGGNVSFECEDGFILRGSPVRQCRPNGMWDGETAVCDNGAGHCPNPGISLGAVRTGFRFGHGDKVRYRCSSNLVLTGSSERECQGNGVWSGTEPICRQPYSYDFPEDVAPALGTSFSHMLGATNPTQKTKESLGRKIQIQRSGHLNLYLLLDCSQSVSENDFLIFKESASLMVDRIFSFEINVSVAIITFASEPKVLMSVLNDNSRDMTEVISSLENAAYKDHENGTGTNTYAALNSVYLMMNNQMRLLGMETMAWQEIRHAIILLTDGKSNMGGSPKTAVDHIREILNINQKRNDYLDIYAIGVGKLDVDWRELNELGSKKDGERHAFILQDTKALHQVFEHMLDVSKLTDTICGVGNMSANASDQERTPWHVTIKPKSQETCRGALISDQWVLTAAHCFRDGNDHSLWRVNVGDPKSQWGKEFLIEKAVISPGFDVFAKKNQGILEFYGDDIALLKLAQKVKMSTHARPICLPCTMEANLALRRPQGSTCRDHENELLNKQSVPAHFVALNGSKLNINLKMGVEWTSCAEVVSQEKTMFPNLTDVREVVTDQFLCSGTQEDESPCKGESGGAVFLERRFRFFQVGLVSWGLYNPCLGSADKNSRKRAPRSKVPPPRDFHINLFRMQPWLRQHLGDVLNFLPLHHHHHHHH

A further test addresses T4, human C2 V722A (human, UniProt P06681 21-752).
T4 sequence: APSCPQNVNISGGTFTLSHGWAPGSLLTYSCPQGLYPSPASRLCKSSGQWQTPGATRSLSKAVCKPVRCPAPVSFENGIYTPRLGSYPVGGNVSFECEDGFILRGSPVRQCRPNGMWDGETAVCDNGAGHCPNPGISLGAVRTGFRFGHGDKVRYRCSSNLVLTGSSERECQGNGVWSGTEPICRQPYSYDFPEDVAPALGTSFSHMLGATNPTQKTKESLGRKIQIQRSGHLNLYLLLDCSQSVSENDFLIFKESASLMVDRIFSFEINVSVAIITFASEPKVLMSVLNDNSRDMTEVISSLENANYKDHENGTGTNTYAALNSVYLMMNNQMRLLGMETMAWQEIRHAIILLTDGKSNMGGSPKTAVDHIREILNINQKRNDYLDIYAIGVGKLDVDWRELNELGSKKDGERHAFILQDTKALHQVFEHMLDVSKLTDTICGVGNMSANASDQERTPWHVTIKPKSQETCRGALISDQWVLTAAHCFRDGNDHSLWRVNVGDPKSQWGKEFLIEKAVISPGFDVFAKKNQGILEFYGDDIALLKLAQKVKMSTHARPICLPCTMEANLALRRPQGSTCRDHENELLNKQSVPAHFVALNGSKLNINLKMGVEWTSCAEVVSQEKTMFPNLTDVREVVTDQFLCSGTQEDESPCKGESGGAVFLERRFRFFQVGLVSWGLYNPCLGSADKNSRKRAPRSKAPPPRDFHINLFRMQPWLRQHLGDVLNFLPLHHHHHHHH

Broadly, the Kd is a measure of binding affinity in units of concentration. A higher Kd goes with a looser complex.

B1: RF16-226 (antibody, human IgG4 S228P, lambda)
heavy: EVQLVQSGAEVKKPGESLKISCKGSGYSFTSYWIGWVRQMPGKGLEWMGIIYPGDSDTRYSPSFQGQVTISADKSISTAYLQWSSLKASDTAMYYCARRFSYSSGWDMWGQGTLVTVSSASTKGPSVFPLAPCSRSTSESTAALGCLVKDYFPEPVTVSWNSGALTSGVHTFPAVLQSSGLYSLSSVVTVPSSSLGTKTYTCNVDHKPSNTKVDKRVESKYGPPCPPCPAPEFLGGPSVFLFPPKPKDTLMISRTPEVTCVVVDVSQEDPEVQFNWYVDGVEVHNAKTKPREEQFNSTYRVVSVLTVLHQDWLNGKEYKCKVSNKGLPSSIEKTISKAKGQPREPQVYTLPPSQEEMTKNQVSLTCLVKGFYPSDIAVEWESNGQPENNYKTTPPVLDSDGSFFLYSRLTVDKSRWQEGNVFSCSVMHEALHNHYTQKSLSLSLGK
light: SYELTQPPSVSVSPGQTARITCSGDALTSKYVAWYQQKSGLAPLLVIYEDTRRPSGIPAKFSGSSSGSVATLTISGAHGDDEADYYCYSTDASGHQRVFGGGTKLTVLSQPKAAPSVTLFPPSSEELQANKATLVCLISDFYPGAVTVAWKADGSPVKAGVETTKPSKQSNNKYAASSYLSLTPEQWKSHRSYSCQVTHEGSTVEKTVAPTECS
notes: pH-dependent anti-C2 antibody from a phage display library; also called WT
With B1, the Kd with human C2 N325A amounted to 51.3 nM; with human C2 E532A it was 17.2 nM; with human C2 N327A it was 67.4 nM; in the test with human C2 V722A, 95.2 nM.

These data come from patent US20220332804A1 (CSL INNOVATION, published 2022).
